Experiment: yeast display, Sf9 membrane polyspecificity reagent, FACS + sequencing; frameworks hold sequencing errors
Procedure, shortened: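 Nanobodies from a synthetic yeast display library (Saccharomyces cerevisiae BJ5465), induced 36–48 hours with galactose, were stained 1 hour at 4 °C with 10% biotinylated, detergent-solubilized Sf9 membrane reagent, enriched on streptavidin microbeads, then FACS-sorted. Anti-HA (expression) and streptavidin (reagent binding) fluorescence set low and high (top ~1%) gates. Polyreactivity labels come from the gate of origin. Genes were colony-PCR amplified, MiSeq 2 × 250 sequenced and filtered by CDR length.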

| Sequence | polyreactivity (PSR sort gate) |
| --- | --- |
| QVHLVESGGGLVQAGGSLRLSCAASGFTFPWYAMGWYRQAPGKERELVAAINTGGSTYYADSVKGRFSISRDNAKNTVYLQMNSLKPDDTEVYYCATLGRYRYLNTYYWGSHDYWGQGTQVTVSS | high polyreactivity |
| QVQLVESGGGLVQAGGSLRLSCAASAFYTNAMGWYRQAPGKERELVAAITSDGDSTYYADSVKGRFTISRDNAKNTVYLQMNSLKPEDNAVYYCAADAVPTSVVDWGFYGMYWGQGTQVTVSS | low polyreactivity |
| QVQLVESGGGLDQAGGSLRLSSAASGFIFWFNAMRWYRQAPGTERELVATISRSDTSTYYADSVKGRFTISRDNAKNSVYLQMNSLKPEDTAVYYCATDVRETWLPEYYWGQGTEVTVSS | low polyreactivity |
| QVQLVETGGGLFQAGGSLRISCAASGSTFYTYAMGWYRQSPGKERELVAAITRRGGRTYYADSVKGRFTISRDNAKNTVYLQMNSLKPEDTAVYYCAADSRTNGYDYWGQGTQVTVSS | high polyreactivity |
| QVQLVESGGGLVQAGGSLRLSCAASGSIFKYYAMGWYRQAPGKERELVAAISSGGRTYYADSVKGRFTISRDNAKNTVYLQMNSLKPEDTAVYYCNRPPWSRGSNYWGQGTQVTVSS | high polyreactivity |
| QVQLVESGGGLVQAGGSLRLSCAASGRIFGVNAMGWYRQAPGKERELVAAISRSGGSTYYADSVKGRFTISRDNAKNTVYLQMNSRKPEDTAVYYCATDHFYYRQKYWAYYYWGQGTQVTVSS | high polyreactivity |
| QVQLVESGGGLVQAGGSLRLSCAASGSTFDKYAMGWYRQAPGKERELVAAITWGGGSTYYADSVKGRFTISRDNAKNTVYLQMNSLKPEDTAVYYCAAEQGSSVLYDSWGQGTQVTVSS | low polyreactivity |
| QVPLVESAGGLVQAGGSLRLSCAASGSTFYPYAMGWYRQAPGKERELVAAISSGGSTSYADSVKGRFTISRDNAKNTVYLQMNSLKPEDTEVYYCHASSPGAVPVYDYDYWGQGTQVTVSS | low polyreactivity |
| QVQLEESGGGLVQAGGSLRLSCAASGFTFNKYAMGWYRQAPGKERELVDAISSSGGSTRYADSVKGRFKISRDNAKNTVYLQMNSLKPEDSAVYYCAVYVTRDSGWWLYDYWGQGTQVTVAS | high polyreactivity |
| QVQLVESGGGLVQAGGSLRLSCASSGSTFAQNTMGWYRQAPRKERELVATISDGGGSTYYADSVKGRFTISRDNAKNTVYLQMNSLKPEDTAVYYCNTDRFWPSDYWGQGTQVTVSS | low polyreactivity |
| QVQLVESGGGLVQSGGSLRLSCAASGSTFVWYAMGWYRQAPGKERELVAAITDSGDDTYYADSVKGRFTISRDNAKNTVYLQMNSLKAEDNAVYYCAVVAWSVPPYDYWGQGTQVTVSS | low polyreactivity |
| QVQLVESGGGLVQAGGSLRLSCAASGITFRTNTMGWYRQAPGKEREFVAAISSNGGRTYYADSVKGRFTISRDNAKNTVYLQMNSLKPEDTAVYYCNARTKHRYEYDYWGQGTQVTVSS | high polyreactivity |
| QVQLVESGGGLVQAGGSLRLSCAASGRTFTRYAMGWYRQAPGKERELVATINSSGDRTYYADSVKGRFTISRDNAKNTVYLQMNSLKPEDTAVYYCAKRWSPYLYGYWGQGTQVTVSS | high polyreactivity |
| QVQLVESGGGLVQAGGSLRLTCPASGTIFWNYAMGWYRQAPGKERELVAAISFSGGSTYYADSVKGRFTISRDNAKNTVYLQMNSLKPEDTAVYYCNADYSYVGEYDYWGQGTQVTLSS | low polyreactivity |
| QVQLVETGGGLVQAGGSLSLSCAASGSILDLNAMGWYRQAPGKERELVAAISSGGGTYYADSVKGRFTISRDNAKNTVYLQMNSLKPEDTAVYYCNRVTRWTYNYWGQGTQVTVSS | high polyreactivity |
| QDQLVESGGGLVQAGGSLRLSCAASGSTFTKYAMGWYRQAPGKERELVAAIISYRVGSTYYADSVKGRFTISRDNAKINVYLVMKSLIPEDTAAFYCAAVWKPPGFSTMYYWGQGTEVTVSS | high polyreactivity |

| Sequence | polyreactivity (PSR sort gate) |
| --- | --- |
| QVQLVESGGGLVQAGGSLRLSCAASGRNFFTYAMGWYRQAPGKERELVAAIDRSGTSTNYADSVKGRFTISRDNANNTVYLHMHSLKPEDTAVYYCAARPNPYYDEMDYWGQGTQVTVSS | low polyreactivity |
| QVQLVESGGGLVQAGGSLRLSCAASGIIFKRYVMGWYRQAPGKDRQLVAGISWSGVSTFYADSVKGRFTISRDNAKNTVYLQMNSLKPEDTAVYYCAADRARYYYQAYGAYGYWGQGTQVTVSS | high polyreactivity |
| QVQLVESGGCLVQAGGRLRLSCAASGFIFGRYAMGWYRQAPGKERELVAAITWSGGSTYYADSVKGRFTISRDNAKNTVYLQMNSLKPQDTAVYYCAAYAYAPRDGYGWRKYRFYYWGQGTQVTVSS | high polyreactivity |
| QVQLVESGGGLVQAGGSLRLSCAASGRIFYYNGMGWSRQAPGKERELVAAITANGGSTYYADSVKGRFTISRDNAKNTVYLQMNSLKPDDTAVYYCAARYRFGGIRRYNYWGQGTQVTVSS | high polyreactivity |
| QVQLVESGGGLVQAGGSLRLRCAASGSTFSRYTMGWYRQAPGKERELVAAISKSGGSTYYADSVKGRFTISRDNAKNTVYLQMNSLKPEDTAVYYCAALVRAGTSLDFDYWGQGTQVTVSS | high polyreactivity |
| QVQLVESGGGLVQAGGSLRLSCAASGFTFYTNAMGWYRQAPGKERDMVAVITSGGNTYYADSVKGRFTISRDNAKNTVYLQMNSLKPEDTAVYYFAAIPKRPIRFDYWGQGTQVTVSS | high polyreactivity |
| QVQLVVSGGGLVQAGGSLRLSCATTGRIFHRSAMGWYRQAPGKERGLVAGISSSGGSTYADSVKGRFTISRDNAKNTVYLQMNSLKPEDTAVYYCAAKWRHSGGGMYYWGQGTQVTVSS | high polyreactivity |
| QVQLVESGGGLVQAGGSLRLSCAASGSTFLTYAMGWYRQAPGKERELVASITSTGRTYADSVKGRFTISRDNAKNTVYLQMNSLKPEDTAVYYCNADVTAFRRSFLRKYYSYDSWGQGTQVTVSS | low polyreactivity |
| QVQLVESGGGLVQAGGSLRLSCAASGSIFRGNAMGWYRQAPGKERELVARITWSGGRTYYADSVKGRFTISRDNAKNTVYLQLNSLKPEDTAVYYCAAQYYLYRRGYMWKYDYWGQGTQVTVSS | high polyreactivity |
| QDQLVESGGGLVQAGGSLRLSCAASGSTIDDYARGWYRQAPGKERELVAAITWTSTDTYADSVKGRFTISRDNAKNTVYLQMNCLKPEDTAVYYCATDFIWDTAVTGGPNDWEYDYWGQGTQVTVSS | low polyreactivity |
| QVQLVESGGGLVQAGGSLRLSCAASGLTFVYNDMGWYRQAPGKERELVAGITSGGSTYYADSVKGRFTISRDNAKNTVYLQMNSLKPEDTAVYYCAADGLSTDLFRPDSIVDYWGQGTQVTVSS | low polyreactivity |
| QVQLVESGGVLVQAGGSLRLSCAASGSIFTYYAMGWYRQAPGKEREFVAAISRSGGSTYYADSVKGRFTISRDNANNTVYLQMNSLKPEDTAVYYCNAYSYSDAGDDGDYWGQGTQVTVSS | low polyreactivity |
| QVQLVESGGGLVQAGGSLRLSFAASGFTISYYAMGWYRQAPGKERELVAAISQSGGSTYYADSVKGRFTISRDNAKNTVYLQMNSLKPEDTAVYYCAADTYYNLGNYWGQGTQVTVSS | high polyreactivity |
| QVQLVESGGGLVQAGGSLRLSCAASGRTFYGYAMGWYRQAPGKERELVASISRDGSTNYADSVKGRFTISRDNAKNTVYLQMNSLKPEDTAVYYCAADWVYYRYWPYVGYDYWGQGTQVTVSS | low polyreactivity |
| QVQLQESGGGLVQAGGSLRLSCSASGYISHADEMGWYRQAPGKEHELVASISNGGSTNYADSVKGRFTISRDNAKNTVYLQMNSLKSEDTAVYYCAAWTGQVDIHYYWGQGTQVTVSS | low polyreactivity |

Reference: the nanobody polyreactivity screen of Harvey et al. (2022)
